Data: article PMC12719470 (2025)

Target: T1, TNFR2-His protein (UniProt P20333 23-461)
T1 chain: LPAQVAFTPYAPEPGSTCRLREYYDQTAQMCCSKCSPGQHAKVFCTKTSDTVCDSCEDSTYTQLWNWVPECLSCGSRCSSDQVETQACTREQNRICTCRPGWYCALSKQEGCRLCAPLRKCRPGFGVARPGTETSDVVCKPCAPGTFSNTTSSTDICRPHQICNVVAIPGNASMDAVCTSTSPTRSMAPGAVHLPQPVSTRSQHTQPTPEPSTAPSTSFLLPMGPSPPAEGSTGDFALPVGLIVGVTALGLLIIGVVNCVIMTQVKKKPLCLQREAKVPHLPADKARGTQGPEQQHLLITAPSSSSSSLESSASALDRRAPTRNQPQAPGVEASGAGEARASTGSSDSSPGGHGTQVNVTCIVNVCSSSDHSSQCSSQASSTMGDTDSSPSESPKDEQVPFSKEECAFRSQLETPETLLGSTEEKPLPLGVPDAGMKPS
Assay: BLI

Kd: 214 µM
B1: Nanobody-161 IgG1 Y105G (Fc fusion)
chain: EVQLVESGGGLVQPGGSLRLSCAASGSIRFINDMGWYRQAPGKGLELVAAIGRGGGSTNYADSVKGRFTISRDNAKNTLYLQMNSLRAEDTAVYYCHAEISQLGGAFRDYWGQGTLVTVSS
